The results in this text go back to article PMC12014896 (2025).

The chains are these.
B1: COVIC-61 (antibody)
chain: QVQLQESGGGLVQAGGSLRLSCAASGRTFSEYAMGWFRQAPGKEREFVATISWSGGSTYYTDSVKGRFTISRDNAKNTVYLQMNSLKPDDTAVYYCAAAGLGTVVSEWDYDYDYWGQGTQVTVSSGGSGGSQVQLQESGGGLVQAGGSLRLSCAASGRTFSEYAMGWFRQAPGKEREFVATISWSGGSTYYTDSVKGRFTISRDNAKNTVYLQMNSLKPDDTAVYYCAAAGLGTVVSEWDYDYDYWGQGTQVTVSSGGGGSGGGGSKKKPLDGEYFTLQIRGRERFEMFRELNEALELKDAQAGKEPG
B2: COVIC-78 (antibody, V domains shown)
VH: QVQLVQSGAEVKKPGSSVKVSCKASGGTFSTSTFNWVRQAPGQGLEWMGGIIPIFGTVNYAQKFQGRVTITADESTGTAYMELSSLRSEDTAVYYCATLGQWDLLPRWGQGTLVTVSS
VL: KIVLTQSPDTLSLSPGERATLSCRASQSVDSNYLAWYQQKPGQAPRLLIYGASSRATGIPDRFSGSGSGTDFTLTISRLEPEDFAVYYCQQYGSSYTFGQGTKLEIK
B3: COVIC-299 (antibody, V domains shown)
VH: EVQLVESGGGLVQPGGSLRLSCAASGLIVSRNYMSWVRQAPGKGLEWVSVIYSGGSTFYADSVKGRFTISRDNSKNTLYLQMNSLRAEDTAVYYCARDLNIAGGFDIWGQGTMVTVSS
VL: DIQLTQSPSFLSASVGDRVTITCRASQGISSYLAWYQQKPGKAPKLLIYAASTLQSGVPSRFSGSGSGTDFTLTISSLQPEDFATYYCQHLNIDPITFGQGTRLEIK
B4: COVIC-42 (antibody, V domains shown)
VH: EVQLVESGGGLIQPGGSLRLSCAASGVIVSSNYMSWVRQAPGKGLEWVSVIYSGGSTYYADSVKGRFTISRDNSKNTLYLQMNSLRAEDTAVYYCARDLDVSGGMDVWGQGTTVTVSS
VL: not shown
B5: COVIC-307 (antibody, V domains shown)
VH: QVQLVQSGAEVKKPGSSVKVSCKASGGTFGISWVRQAPGQGLEWMGRIIPILGTANHAQKFQGRVTITADKSTGTVYMELSSLRSEDTAVYYCARDGDSGSYYETLGFDYWGQGTLVTVSS
VL: QSALTQPPSASGSPGQSVTISCTGTSSDVGGYNYVSWYQQHPGKAPKLMIYEVNKRPSGVPDRFSGSKSGNTASLTVSGLQAEDEADYYCSSYAGSNNLVFGGGTKLTVL
B6: COVIC-152 (antibody, V domains shown)
VH: QVQLQESGPGLVKPSQTLSLTCTVSGGSISSYGYYWSWIRQHPGKGLEWIGYIYYSGSTYYNPSLKSRVTMSVDTSKNQLSLRLNSVSAADTAVYYCARDFGGNSNYFDYWGQGTLVTVSS
VL: AIQLTQSPSSLSASVGDRVTITCRASQGISSALAWYQQKPGKAPNLLIYDASSLESGVPSRFSGSGSGTDFTLTISSLQPEDFATYYCQQFNSSPLTFGGGTKVEIKR
B7: COVIC-159 (antibody, V domains shown)
VH: EVQLVESGGGLIQPGGSLRLSCAASGFTVSSNYMNWVRQAPGKGLEWVSVIYSGGSTYYADSVKGRFTISRDNSKNTLFLQMNSLRAEDSAVYYCARDLGPYGVDVWGQGTTVTVSS
VL: DIQLTQSPSFLSASVGDRVTITCWASQGISSYLAWYQQKPGKAPKLLIYAASTLQSGVPSRFSGSGSGTEFTLTISSLQPEDFATYYCQELNSYPLTFGQGTRLEIKR
B8: COVIC-263 (antibody, V domains shown)
VH: QVQLQESGPRLVKPSETLSLTCTVSGGSISGSNYFWGWIRQPPGKGLEWIGTIYYGGSTYYNPSLKSRVTISVDTSENQFSLKLSSVTAADTAVYYCANLAWLRGYFDYWGQGTLVTVSS
VL: NFMLTQPHSVSESPGKTVTISCTRSSGSIASNYVQWYQQRPGSAPTTVIYEDNQRPSGVPDRFSGSIDSSSNSVSLTISGLKTEDEADYYCQSYDSSNWVFGGGTKLTVLG
B9: COVIC-28 (antibody, V domains shown)
VH: QVQLVQSGAEVKKPGASVKVSCKASGYTFTSYYMHWVRQAPGQGLEWMGIINSSGGSTSYAQKFQGRVTMTRDTSTSTVYMELSSLRSEDTAVYYCARPPRNYYDRSGYYQRAEYFQHWGQGTLVTVSS
VL: DIQLTQSPSSLSASVGDRVTITCQASQDISNYLNWYQQRPGKAPKLLIYDASNLETGVPSRFSGSGSGTDFTFTISSLQPEDIATYYCQQYDNPPLTFGGGTKLEIK
B10: COVIC-185 (antibody, V domains shown)
VH: QVQLVQSGAEVKKPGASVRVSCKASGYTFTGYYMHWVRQAPGQGLEWMGWINPISDGTNYAQKFQGWVTMTRDTSISTVYMELSRLRSDDTAVYYCARGGSRCSGGNCYGWAYDAFDIWGQGTMITVSS
VL: QSALTQPASVSGSPGQSITISCTGTSSDVGGYNFVSWYQQHPGKAPKLMIYDVSKRPSGVSNRFSGSKSGNTASLTISGLQAEDEADCYCSSYTSSSTFVFGTGTKVTVL
B11: COVIC-147 (antibody, V domains shown)
VH: EVQLVESGGGLIQPGGSLRLSCAASGFTVSSIYMSWVRQAPGKGLEWVSIIYSRGSTDYADSVKGRFTISRDISKNTLYLQMNSLRAEDTAVYYCARDGTMVRGVHAFDIWGQGTMVTVSS
VL: DIQMTQSPPSLSASIGDRVTITCQASQDISNYLNWYQQKPGKAPKLLIYDASNLETGVPSRFSGSGSGTDFTLTISNLQPEDIVTYYCQQYDNLPSSFGQGTKLEIKR
B12: COVIC-332 (antibody, V domains shown)
VH: QVQLVQSGAEVKKPGSSLKVSCKASGGTFNNFAISWVRQAPGQGPEWMGRINPILSAAKYAQKFQGRLTITADKSTTTAYMELSSLRSEDTAVYYCAPTGTGESWWFDPWGQGTLVTVSS
VL: QSVLTQPPSASGTPGQRVTISCSGSSSNIGTNYVYWYQQLPGTAPKVLIYGNNQRPSGVPDRFSGSKSGSSASLAISGLRSEDEADYYCAAWDDSLSGPVFGGGTKLTVL
B13: COVIC-21 (antibody, V domains shown)
VH: EVQLLESGGGLVQPGGSLRLSCAASGFTFSDFAMAWVRQAPGKGLEWVSAISGSGDITYYADSVKGRFTISRDNSKNTLYLQMNSLRAEDTAVYYCAREADGLHSPWHFDLWGQGTLVTVSS
B14: COVIC-337 (antibody, V domains shown)
VH: EVQLVQSGAEVKKPGSSVKVSCKASGGTFSMHTIRWVRQAPGQGLEWMGRIIPMLGIVNYAQKFQGRVTISADKSTSTAYMELSSLTSEDTAMYYCAKGSHDVFDIWGQGTMVTVSS
VL: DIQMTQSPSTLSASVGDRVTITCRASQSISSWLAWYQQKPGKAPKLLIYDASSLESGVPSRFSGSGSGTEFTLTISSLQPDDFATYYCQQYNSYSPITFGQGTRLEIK
B15: COVIC-35 (antibody, V domains shown)
VH: EVQLVESGGGVVQPGRSLRLSCAASGFTFSSYAMHWVRQAPGKGLEWVAVISYDGSYKYYADSVKGRFTISRDNSKNTLYLQMNSLTAEDTAVYYCAREGSRQWLVIYFDYWGQGTLVTVSS
VL: AIRMTQSPSSLSASVGDRVTITCRASQSISSYLNWYQQKPGKAPKLLIYAASSLQSGVPSRFSGSGSGTDFTLTISSLQPEDFATYYCQQSYTTFIYTFGQGTKLEIK
B16: COVIC-23 (antibody, V domains shown)
VH: EVQLLESGGGLVQPGGSLRLSCAASGFTFSNYPMNWVRQAPGKGLEWVSTISGSGGNTFYADSVKGRFTISRDNSKNTLYLQMNSLRAEDTAVYYCVRHDEYSFDYWGQGTLVTVSS
B17: COVIC-119 (antibody)
chain 1: QVQLQESGGGLVQAGGSLRLSCAASGRTFSEYAMGWFRQAPGKEREFVATISWSGGSTYYTDSVKGRFTISRDNAKNTVYLQMNSLKPDDTAVYYCAAAGLGTVVSEWDYDYDYWGQGTQVTVSSGGSGGSQVQLQESGGGLVQAGGSLRLSCAASGRTFSEYAMGWFRQAPGKEREFVATISWSGGSTYYTDSVKGRFTISRDNAKNTVYLQMNSLKPDDTAVYYCAAAGLGTVVSEWDYDYDYWGQGTQVTVSSGGGGSGGGGSASTKGPSVFPLAPSSKSTSGGTAALGCLVKDYFPEPVTVSWNSGALTSGVHTFPAVLQSSGLYSLSSVVTVPSSSLGTQTYICNVNHKPSNTKVDKKVEPKSCDKTHTKKKPLDGEYFTLQIRGRERFEMFRELNEALELKDAQAGKEPG
chain 2: QVQLQESGGGLVQAGGSLRLSCAASGRTFSEYAMGWFRQAPGKEREFVATISWSGGSTYYTDSVKGRFTISRDNAKNTVYLQMNSLKPDDTAVYYCAAAGLGTVVSEWDYDYDYWGQGTQVTVSSGGSGGSQVQLQESGGGLVQAGGSLRLSCAASGRTFSEYAMGWFRQAPGKEREFVATISWSGGSTYYTDSVKGRFTISRDNAKNTVYLQMNSLKPDDTAVYYCAAAGLGTVVSEWDYDYDYWGQGTQVTVSSGGGGSGGGGSKRTVAAPSVFIFPPSDEQLKSGTASVVCLLNNFYPREAKVQWKVDNALQSGNSQESVTEQDSKDSTYSLSSTLTLSKADYEKHKVYACEVTHQGLSSPVTKSFNRGEC
B18: COVIC-123 (antibody)
chain: QVQLQESGGGLVQAGGSLRLSCAASGRTFSEYAMGWFRQAPGKEREFVATISWSGGSTYYTDSVKGRFTISRDNAKNTVYLQMNSLKPDDTAVYYCAAAGLGTVVSEWDYDYDYWGQGTQVTVSSGGSGGSQVQLQESGGGLVQAGGSLRLSCAASGRTFSEYAMGWFRQAPGKEREFVATISWSGGSTYYTDSVKGRFTISRDNAKNTVYLQMNSLKPDDTAVYYCAAAGLGTVVSEWDYDYDYWGQGTQVTVSSGGGGSGGGGSEPKSCDKTHTCPPCPAPELLGGKKKPLDGEYFTLQIRGRERFEMFRELNEALELKDAQAGKEPGGGGGSGGGGSQVQLQESGGGLVQAGGSLRLSCAASGRTFSEYAMGWFRQAPGKEREFVATISWSGGSTYYTDSVKGRFTISRDNAKNTVYLQMNSLKPDDTAVYYCAAAGLGTVVSEWDYDYDYWGQGTQVTVSS
B19: COVIC-362 (antibody, V domains shown)
VH: EVQLVESGGGLVQPGGSLRLSCKASGISVAPHAVTWVRQAPGKGLEWIGVIASNADTYYASWAKGRFTISRDNSKNTLYLQMNSLRAEDTAVYYCARHPGSAGYGYTYYYAMDPWGQGTLVTVSS
VL: DIQMTQSPSSLSASVGDRVTITCQASERVFYGIDWYQQKPGKAPKLLIYGASALWHGVPSRFSGSGSGTDYTLTISSLQPEDFATYYCQQGYMVPIGFGGGTKVEIK
B20: COVIC-359 (antibody, V domains shown)
VH: EVQLVESGGGLVQPGGSLRLSCKASGISVAPHAVTWVRQAPGKGLEWIGVIASNADTYYASWAKGRFTISRDNSKNTLYLQMNSLRAEDTAVYYCARHPGSAGYGYTYYYAMDPWGQGTLVTVSS
VL: DIQMTQSPSSLSASVGDRVTITCKASEDIRYGLNWYQQKPGKAPKLLIYGANTLEAGVPSRFSGSGSGTDYTLTISSLQPEDFATYYCQQGYSTPLTFGGGTKVEIK

For the assay, the target named is SARS-CoV-2 spike RBD (Wuhan-Hu-1) (Severe acute respiratory syndrome …, UniProt P0DTC2). The assay can be described thus: SPR. (In general: Surface plasmon resonance follows binding to a sensor surface in real time, without labels.)
Broadly, the Kd is the constant that tells how readily two partners part at equilibrium. Low readings indicate a tighter complex, high ones a looser complex. B1 registered an equilibrium dissociation constant (Kd) of 195 nM. Take B2: binding was characterised by a dissociation constant (Kd) of 393 nM. As for B3, the figure is 0.332 nM.

B4 showed a dissociation constant Kd of 11 nM. For B5, the affinity, expressed as Kd, was 2.36 nM. With B6 the figure was 3.02 nM. As for B7, the figure is 24.9 nM; as for B8, 0.0861 nM; as for B9, 12.3 nM. With B10 the figure was 12.3 nM; with B11, 2.3 nM; with B12, 0.111 nM. On to B13, for which the Kd was 0.208 nM. As for B14, the figure is 3.02 nM; as for B15, 2.81 nM. As for B16, the figure is 71.3 nM; as for B17, 179 nM. As for B18, the figure is 206 nM; as for B19, 0.00985 nM; as for B20, 0.0139 nM.
